Substitutions are numbered along the chain they refer to. Like-named read-outs stand apart in the source and are kept apart here.
Key:
[1] = molecular target: BoNT/A light chain (recombinant) (Clostridium botulinum, UniProt P0DPI0 1-448); assay: KinExA, IgG
[2] = molecular target: T1, BoNT/A1 holotoxin (Hall hyper) (Clostridium botulinum, UniProt P0DPI0 2-1296); assay: KinExA, IgG
[3] = molecular target: T2, BoNT/A2 holotoxin (FRI-H1A2) (Clostridium botulinum, UniProt Q45894 2-1296); assay: KinExA, IgG
[4] = molecular target: T1, BoNT/A1 holotoxin (Hall hyper)
[5] = molecular target: T3, BoNT/F1 (proteolytic BoNT/F) (Clostridium botulinum, UniProt A7GBG3 1-1278); assay: yeast scFv FACS
T3 sequence: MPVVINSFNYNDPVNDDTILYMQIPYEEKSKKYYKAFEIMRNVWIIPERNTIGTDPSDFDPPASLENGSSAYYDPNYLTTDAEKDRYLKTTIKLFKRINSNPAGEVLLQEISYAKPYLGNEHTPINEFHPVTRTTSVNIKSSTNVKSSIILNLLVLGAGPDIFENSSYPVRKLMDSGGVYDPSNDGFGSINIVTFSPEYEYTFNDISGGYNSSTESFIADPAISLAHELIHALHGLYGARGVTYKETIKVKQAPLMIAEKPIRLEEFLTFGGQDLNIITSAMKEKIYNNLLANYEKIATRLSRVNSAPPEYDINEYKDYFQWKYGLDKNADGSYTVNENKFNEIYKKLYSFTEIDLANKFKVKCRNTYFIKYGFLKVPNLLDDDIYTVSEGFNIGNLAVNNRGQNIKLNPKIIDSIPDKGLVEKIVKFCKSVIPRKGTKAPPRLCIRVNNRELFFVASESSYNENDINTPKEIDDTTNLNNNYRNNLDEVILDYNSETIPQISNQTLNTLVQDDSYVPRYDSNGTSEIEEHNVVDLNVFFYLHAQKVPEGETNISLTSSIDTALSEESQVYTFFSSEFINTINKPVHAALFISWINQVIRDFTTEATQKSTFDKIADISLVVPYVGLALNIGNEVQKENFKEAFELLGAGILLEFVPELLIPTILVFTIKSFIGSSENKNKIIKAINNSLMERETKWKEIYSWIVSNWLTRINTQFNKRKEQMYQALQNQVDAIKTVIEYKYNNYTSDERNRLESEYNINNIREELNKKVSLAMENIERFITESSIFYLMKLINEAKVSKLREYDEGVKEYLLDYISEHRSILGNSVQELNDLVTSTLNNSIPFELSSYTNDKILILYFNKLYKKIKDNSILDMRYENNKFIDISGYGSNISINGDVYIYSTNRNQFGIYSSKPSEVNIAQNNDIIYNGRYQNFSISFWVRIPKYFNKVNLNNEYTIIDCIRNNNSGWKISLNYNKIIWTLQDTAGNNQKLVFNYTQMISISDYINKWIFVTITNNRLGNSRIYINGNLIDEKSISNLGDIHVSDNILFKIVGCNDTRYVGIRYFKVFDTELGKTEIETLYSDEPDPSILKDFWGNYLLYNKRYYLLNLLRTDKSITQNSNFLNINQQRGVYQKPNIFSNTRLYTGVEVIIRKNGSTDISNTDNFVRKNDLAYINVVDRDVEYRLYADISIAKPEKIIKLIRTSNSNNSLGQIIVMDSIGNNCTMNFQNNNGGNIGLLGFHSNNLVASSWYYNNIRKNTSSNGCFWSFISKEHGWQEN

BoNT/F 202F = molecular target: T4, BoNT/F 202F (Clostridium botulinum, UniProt P30996 1-1274); assay: yeast scFv FACS
T4 sequence: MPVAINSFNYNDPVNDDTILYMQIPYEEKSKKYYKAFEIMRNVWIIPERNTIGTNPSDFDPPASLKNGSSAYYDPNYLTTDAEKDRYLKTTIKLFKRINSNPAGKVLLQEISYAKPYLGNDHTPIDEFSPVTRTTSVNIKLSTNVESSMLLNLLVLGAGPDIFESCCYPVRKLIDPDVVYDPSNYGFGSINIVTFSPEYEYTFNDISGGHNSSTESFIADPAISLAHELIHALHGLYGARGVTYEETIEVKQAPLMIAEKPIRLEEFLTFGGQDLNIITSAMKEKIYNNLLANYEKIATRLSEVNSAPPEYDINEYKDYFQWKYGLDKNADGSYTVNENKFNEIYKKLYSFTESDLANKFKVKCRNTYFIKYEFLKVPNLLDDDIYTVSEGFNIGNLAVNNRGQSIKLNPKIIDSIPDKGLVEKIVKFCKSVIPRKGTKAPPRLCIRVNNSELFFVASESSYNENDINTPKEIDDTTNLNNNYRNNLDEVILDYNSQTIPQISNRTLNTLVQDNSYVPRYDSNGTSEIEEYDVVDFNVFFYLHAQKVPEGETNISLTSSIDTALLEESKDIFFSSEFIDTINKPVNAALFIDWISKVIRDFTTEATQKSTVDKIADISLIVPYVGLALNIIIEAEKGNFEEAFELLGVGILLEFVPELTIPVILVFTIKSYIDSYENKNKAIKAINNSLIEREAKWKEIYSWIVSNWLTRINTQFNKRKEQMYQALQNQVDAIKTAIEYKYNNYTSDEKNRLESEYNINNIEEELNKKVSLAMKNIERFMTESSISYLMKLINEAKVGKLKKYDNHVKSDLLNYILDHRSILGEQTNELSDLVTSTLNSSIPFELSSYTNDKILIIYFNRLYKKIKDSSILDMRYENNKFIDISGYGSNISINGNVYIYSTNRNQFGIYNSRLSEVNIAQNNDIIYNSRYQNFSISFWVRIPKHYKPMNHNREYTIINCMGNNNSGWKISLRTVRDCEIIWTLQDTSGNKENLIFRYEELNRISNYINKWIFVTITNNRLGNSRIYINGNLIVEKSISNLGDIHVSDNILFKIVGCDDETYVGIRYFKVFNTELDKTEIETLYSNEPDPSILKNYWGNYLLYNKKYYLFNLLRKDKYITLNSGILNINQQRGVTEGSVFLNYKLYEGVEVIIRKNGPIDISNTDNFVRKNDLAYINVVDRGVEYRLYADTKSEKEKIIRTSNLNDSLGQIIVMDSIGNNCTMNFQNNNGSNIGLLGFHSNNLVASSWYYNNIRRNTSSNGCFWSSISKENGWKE

[6] = molecular target: T3, BoNT/F1 (proteolytic BoNT/F); assay: yeast scFv FACS; remark: listed apart in the source
BoNT/F6 = molecular target: T5, BoNT/F6 (Clostridium botulinum, UniProt P30996 1-1274); assay: yeast scFv FACS
T5 sequence: T4 sequence

[7] = molecular target: T2, BoNT/A2 holotoxin (FRI-H1A2)
[8] = molecular target: T3, BoNT/F1 (proteolytic BoNT/F)

B1: ING2 IgG (antibody, V domains shown)
VH: QVQLVQSGAEVKKPGSSVKVSCKASGDTFNRNAIAWVRQAPGQGLEWMGRIIPNLRTTHYAQKFQGRVAITADKHTNTVFMELSSLRSEDTAVYYCARDPYYYSYMDVWGKGTTVTVSS
VL: not shown
B1 showed a Kd [1] of 85.7 nM, a Kd [2] of 0.00957 nM and a Kd [3] of 0.00742 nM.

B2: 6A1M IgG (antibody, V domains shown)
VH: LQLKQSGPGLVKPSQSLSLTCSVTGYSITSGYYWYWIRQFPGNKLEWMGYISYDGSNNYNPSLKNRISITRDTSKNQFFLKLNSVTTEDTATYYCARNLGLWYFDVWGTGTPLTVSS
VL: EIVLTQSPAILSASPGEKVTMTCRASSSVRYMHWYQQKPGSSPKPWIYATSNLASGVPARFSGSGSGTSYSLTISRVEAEDAATYYCQQWSGNAPTFGGGTKLEIK
notes: IgG converted from scFv
B2 was tested, and the Kd [1] was 1.38 nM, the Kd [2] was 0.00921 nM and the Kd [3] was 0.00289 nM.

B3: B4 (antibody) (antibody, V domains shown)
VH: QVQLVESGGGVVRPGGSLRLSCAASGFTFDDYGMSWVRQAPGKGLEWVSAINWNGGNTGYADSVKGRFTISRDNAKNSLYLQMNSLRVEDTALYHCAREGDYGGLYFDYWGQGTLVTVSS
VL: not shown
In the case of B3, the Kd [4] is reported as 0.0931 nM.

B4: 28H2 scFv (scFv, V domains shown)
VH: QVQLQESGPGLVKPSQTVSLTCTVAGYSITNGNHWWNWIRQVSGSKLEWIGYITSSGSTDSNPSLKSRISITRDTSKNQLFLQLNSVTTEDIATYYCARSSNYFFHVLDYWGQGTSVTVSS
VL: DIVLTQTPAIMSASPGEKVTMTCSASSSVSYMHWFQQKPGTSPKLWIYSTSNLASGVPARFSGSGSGTSYSLTISRMEAEDAATYYCQQRSSYPPTFGGGTRLEIK
For B4, the Kd [5] was 1.55 nM, the binding result (BoNT/F 202F) was “no binding” and the Kd [6] was 1.55 nM. B4: no binding (tested: maximum toxin concentration tested) (BoNT/F6).

B5: A9 (antibody, V domains shown)
VH: QVQLVQSGGGVVQPGRSLRLSCAASGFTFSSYGMHWVRQAPGKGLEWVSSISSSSSYIYYADSVKGRFTISRDNSKNTLYLQMNSLRAEDTAVYYCARGAVAGGSYGMDVWGQGTMVTVSS
VL: not shown
B5 showed a Kd [4] of 0.0771 nM and a Kd [7] of 0.223 nM.

B6: 4E17.2 scFv (scFv, V domains shown)
VH: EVQLVQSGGNLVQPGGSLRLSCAATGPIGSHWMTWVRQAPGQGLEWVANINLDGTEKFYVDSVKGRFTVSRDNRKSSVFLQMNNLRVDDTAVYYCARLQWGGYNGWLSPWGQGTLVTVSS
VL: DIEMTQSPPSLSASVGDRVSLTCRASEYIGTSLNWYQQKPGKAPKLLIYAASALHSGVPSRFSGSGSGTDFTLTISGLQPEDFATYYCQQANDLPLTFGGGTKLEIK
With B6 the Kd [8] was less than 1 nM, the Kd [5] was 0.39 nM and the binding result (BoNT/F 202F) was “binds”. It also gave a Kd [6] of 0.39 nM.

B7: 4E17.1 (antibody, V domains shown)
VH: B6 VH with Q6R
VL: DIVMTQSPSSLSASVGDRVTISCRASQSIRHYVNWYQQKPGKAPKLLIYKASSLASGAPSRFSGSGSGTDFTLTISSLQPDDFATYYCQQSYSIPLTFGGGTKVEIKR
B7 showed a Kd [4] of 0.00183 nM and a Kd [7] of 0.00798 nM.

B8: 42G8 scFv (scFv, V domains shown)
VH: B6 VH with Q6P
VL: B6 VL with E3V, A91T
B8 was tested, and the “fold increase in affinity over scFv 4E17.2” value [8] was roughly 6 fold, the Kd [5] was 0.243 nM and the binding result (BoNT/F 202F) was “binds”.

From US20220089784A1 (University of California, published 2022)
